Reference: patent publication US20250145673A1 (AFFILOGIC, published 2025)
Where two headings read alike, the source gives them in different places.

Assays:
[1] = target: T1, complement component 3 (C3) (UniProt P01024 23-1663); test: ITC, binder titrated into target
T1 construct: Purified bought protein; native C3 is a disulfide-linked two-chain protein made from one precursor

[2] = target: T1, complement component 3 (C3); test: ITC; ITC, not SPR
[3] = target: T1, complement component 3 (C3); test: ITC, polypeptide titrated into C3; fit box in the lower panel
[4] = target: T1, complement component 3 (C3); test: cell-based or functional assay
[5] = target: T1, complement component 3 (C3); test: SPR, target amine-coupled to chip, single cycle kinetics, 1:1 Langmuir fit
Method: (§1) In summary, ligands were immobilized under the following conditions: 25° C. on a Sierra Sensors HCA (CM5), Running Buffer of PBST (10 mM Phosphate Buffer pH 7.4, 150 mM NaCl, 0.05% Tween-20; pH 7.4), amine coupling Immobilization Buffer of 10 mM NaOAc pH 4.0, activation with EDC/NHS 6 minutes, immobilization for 1 minute, and blocking with 1 M ethanolamine.
An 8-point, 3-fold serial dilution assay was performed in duplicate for the polypeptides described in Example 1 starting at either 20 nM, 50 nM, or 200 nM.
(§2) Sensorgrams were analyzed using Sierra Sensors Analyzer software version 3.1.33 with a double reference to determine the interaction parameters ka, kd, and KD. The reference channel was first subtracted from the ligand channel as the first reference. The internal blank injections were set to closest blank after injection based on the method. The kd was calculated for the top concentration by fitting the off-rate part of the curve. The kd was then set to global constant for fitting rest of the curves. Rmax was fit locally for each individual curve since the number of available binding sites changed after each injection. Binding data was fit to a 1:1 Langmuir model.

[6] = target: T1, complement component 3 (C3); test: SPR, single cycle kinetics, 1:1 Langmuir fit; text says C3 (Cat #A113c) was immobilised, the column's head prints 'Binding to C3b'
Method: C3 binding, VEGF binding, HSA binding, and equilibrium dissociation constant (KD) measurements were determined by Surface Plasmon Resonance (SPR) using the Sierra SPR-23 instrument. C3 protein was obtained from Complement Technology, Inc. (Cat #A113c). VEGF protein was obtained from Sino Biologicals, Inc. HSA protein was obtained from Sigma-Aldrich, Inc. (Cat #A3782). The Fab fusion proteins described in Example 8 were stored each at 1 mg/mL in PBST, pH 7.4.
as §1, with “5.0,” for “4.0,”, “7” for “6”, “2 minutes,” for “1 minute,”, “ethanolamine for 7 minutes.” for “ethanolamine.”
as §2, with “An 8-point, 3-fold serial dilution assay was performed in duplicate for the Fab fusion proteins described in Example 8 starting at 100 nM. Sensorgrams” for “Sensorgrams”, “Analyzer” for “Analyzer software version 3.1.33”

[7] = target: T1, complement component 3 (C3); test: cell-based or functional assay; remark: listed apart in the source
[8] = target: human serum albumin (HSA) (human, UniProt P02768 25-609); test: SPR, HSA amine-coupled to chip, single cycle kinetics, 1:1 Langmuir fit
Method: C3, VEGF, and HSA were placed onto Spots B, C, and D, respectively, across all 8 channels to test for the binding of the supplied analytes. Spot A was used as a reference spot. The conditioned biosensor chip was chemically activated with EDC/NHS. Ligands were then injected onto the activated surface to allow for immobilization. After immobilization, 1 M ethanolamine was injected to block any remaining reactive carboxyl groups in the carboxymethylated dextran surface.
as §1, with “5.0,” for “4.0,”, “7” for “6”, “2 minutes,” for “1 minute,”, “ethanolamine for 7 minutes.” for “ethanolamine.”
as §2, with “An 8-point, 3-fold serial dilution assay was performed in duplicate for the Fab fusion proteins described in Example 8 starting at 100 nM. Sensorgrams” for “Sensorgrams”, “Analyzer” for “Analyzer software version 3.1.33”

[9] = target: T1, complement component 3 (C3); test: ITC, polypeptide titrated into C3; fit box in the lower panel; remark: listed apart in the source
[10] = target: T1, complement component 3 (C3); test: ITC

T1 sequence (P01024 23-1663 limits assumed): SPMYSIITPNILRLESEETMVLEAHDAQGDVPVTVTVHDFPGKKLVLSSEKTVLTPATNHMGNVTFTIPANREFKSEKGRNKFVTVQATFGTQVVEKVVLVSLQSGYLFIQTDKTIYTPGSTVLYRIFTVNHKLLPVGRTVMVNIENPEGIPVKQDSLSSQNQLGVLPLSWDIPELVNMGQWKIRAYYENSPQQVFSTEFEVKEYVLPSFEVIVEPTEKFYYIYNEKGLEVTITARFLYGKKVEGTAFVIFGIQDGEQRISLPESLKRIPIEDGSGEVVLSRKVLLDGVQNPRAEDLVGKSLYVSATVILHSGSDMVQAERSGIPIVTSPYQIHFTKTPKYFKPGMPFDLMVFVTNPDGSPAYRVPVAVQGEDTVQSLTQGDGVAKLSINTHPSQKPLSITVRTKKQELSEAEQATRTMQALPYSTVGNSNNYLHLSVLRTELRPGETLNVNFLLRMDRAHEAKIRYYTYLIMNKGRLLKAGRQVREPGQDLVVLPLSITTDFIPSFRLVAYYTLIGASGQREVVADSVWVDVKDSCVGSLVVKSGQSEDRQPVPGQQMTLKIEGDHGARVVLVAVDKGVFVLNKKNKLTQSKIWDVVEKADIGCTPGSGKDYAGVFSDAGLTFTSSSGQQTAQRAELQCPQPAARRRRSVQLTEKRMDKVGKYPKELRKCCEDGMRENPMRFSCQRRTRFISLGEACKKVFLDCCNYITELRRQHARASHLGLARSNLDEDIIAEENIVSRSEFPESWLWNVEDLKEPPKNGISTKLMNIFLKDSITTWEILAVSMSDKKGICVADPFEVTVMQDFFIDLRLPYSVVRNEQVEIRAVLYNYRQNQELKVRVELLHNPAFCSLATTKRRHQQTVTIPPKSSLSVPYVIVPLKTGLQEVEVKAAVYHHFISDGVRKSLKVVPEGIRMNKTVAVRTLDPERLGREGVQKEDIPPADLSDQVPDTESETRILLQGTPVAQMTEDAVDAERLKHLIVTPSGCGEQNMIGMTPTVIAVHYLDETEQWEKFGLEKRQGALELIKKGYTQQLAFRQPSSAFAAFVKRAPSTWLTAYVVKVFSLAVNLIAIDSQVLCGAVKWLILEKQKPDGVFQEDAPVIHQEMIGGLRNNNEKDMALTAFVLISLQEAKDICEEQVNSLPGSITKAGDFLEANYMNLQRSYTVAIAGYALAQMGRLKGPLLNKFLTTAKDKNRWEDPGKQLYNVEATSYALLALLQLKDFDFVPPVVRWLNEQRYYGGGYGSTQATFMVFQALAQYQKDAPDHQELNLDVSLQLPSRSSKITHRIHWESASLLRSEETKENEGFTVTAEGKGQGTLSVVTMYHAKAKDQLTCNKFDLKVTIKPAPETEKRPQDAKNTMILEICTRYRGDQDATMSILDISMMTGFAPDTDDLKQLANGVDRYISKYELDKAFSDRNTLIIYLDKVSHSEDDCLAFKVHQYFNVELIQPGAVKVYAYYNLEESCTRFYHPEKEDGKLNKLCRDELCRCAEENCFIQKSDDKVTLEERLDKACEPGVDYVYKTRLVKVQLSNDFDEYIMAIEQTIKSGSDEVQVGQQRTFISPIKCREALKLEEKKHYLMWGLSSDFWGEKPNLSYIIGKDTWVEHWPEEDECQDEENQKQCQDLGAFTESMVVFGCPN
Chain of human serum albumin (HSA) (P02768 25-609 limits assumed): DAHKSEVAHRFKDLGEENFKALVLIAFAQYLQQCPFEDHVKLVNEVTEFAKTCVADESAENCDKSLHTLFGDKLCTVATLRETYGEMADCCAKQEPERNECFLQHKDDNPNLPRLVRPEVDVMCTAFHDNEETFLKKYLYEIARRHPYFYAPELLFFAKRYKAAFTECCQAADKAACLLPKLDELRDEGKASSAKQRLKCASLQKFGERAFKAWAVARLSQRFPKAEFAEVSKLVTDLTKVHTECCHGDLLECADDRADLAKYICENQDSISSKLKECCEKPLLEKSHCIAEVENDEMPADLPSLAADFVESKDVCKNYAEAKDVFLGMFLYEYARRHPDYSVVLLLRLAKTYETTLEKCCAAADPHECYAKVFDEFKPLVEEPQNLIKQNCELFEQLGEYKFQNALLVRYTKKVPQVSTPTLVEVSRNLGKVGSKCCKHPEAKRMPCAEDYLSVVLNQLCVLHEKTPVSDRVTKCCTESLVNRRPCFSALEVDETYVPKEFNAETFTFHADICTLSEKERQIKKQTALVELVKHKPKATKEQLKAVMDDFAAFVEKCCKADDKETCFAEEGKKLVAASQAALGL

Binder | -TΔS [1] [kcal/mol] | Kd [1] [nM] | N [1] | ΔG [1] [kcal/mol] | ΔH [1] [kcal/mol] | Kd [2] [nM] | Ka [3] [M⁻¹] | IC50 (nM) Alternative (ELISA-based complement activation assay) [4] [nM] | IC50 (nM) Classical (ELISA-based complement activation assay) [4] [nM] | Kd [5] [nM] | Kd [6] [nM] | IC50 (nM) Alternative Pathway (Wieslab® assay) [7] [nM] | IC50 (nM) Classical Pathway (Wieslab® assay) [7] [nM] | Kd [8] [nM] | Ka [9] [M⁻¹] | Kd [10] [nM]
polypeptide having the amino acid sequence of SEQ ID NO: 27 (designed binder, Sac7d variant (Nanofitin); also called parental clone of cluster 6; Nanofitin) MVKVKFEATGEEKEVDTSKIYQVYRSGKEVLFTYDDNGKTGWGYVSEKDAPKELLDMLARAEREK | 23.4 | 2.1 | 0.98 | -11.8 | -35.2 | 2.1 | 4.74e+08 | 700 | 743 | 1.94 |  |  |  |  |  | 
Fab NF-E (Fab fusion protein comprising SEQ ID NO: 59 and SEQ ID NO: 57) (other, Signal peptide cleaved off prior to secretion) heavy: EVQLVESGGGLVQPGGSLRLSCAASGYDFTHYGMNWVRQAPGKGLEWVGWINTYTGEPTYAADFKRRFTFSLDTSKSTAYLQMNSLRAEDTAVYYCAKYPYYYGTSHWYFDVWGQGTLVTVSSASTKGPSVFPLAPSSKSTSGGTAALGCLVKDYFPEPVTVSWNSGALTSGVHTFPAVLQSSGLYSLSSVVTVPSSSLGTQTYICNVNHKPSNTKVDKKVEPKSCDKTHLGSGGSGSAGSGSGGSVKVKFVFSGEEKEVETSKIKWVLRWGKAVGFKYDDQGKIGYGFVAEKDAPKELLDLLARAERE light: not shown |  |  |  |  |  |  |  |  |  |  | 1.31 | 246 | 65 | 3 |  | 
Fab NF-J (Fab fusion protein comprising SEQ ID NO: 58 and SEQ ID NO: 62) (other) heavy: EVQLVESGGGLVQPGGSLRLSCAASGYDFTHYGMNWVRQAPGKGLEWVGWINTYTGEPTYAADFKRRFTFSLDTSKSTAYLQMNSLRAEDTAVYYCAKYPYYYGTSHWYFDVWGQGTLVTVSSASTKGPSVFPLAPSSKSTSGGTAALGCLVKDYFPEPVTVSWNSGALTSGVHTFPAVLQSSGLYSLSSVVTVPSSSLGTQTYICNVNHKPSNTKVDKKVEPKSCDKTHLGSGGSGSAGSGSGGSVKVKFDATGEEKEVETSKISAVYRTGKDVLFSYDDQGKIGWGYVSEKDAPKELLDLLARAERE light: not shown |  |  |  |  |  |  |  |  |  |  | 0.14 | 121 | 48 | 16.9 |  | 
Fab NF-F (Fab fusion protein comprising SEQ ID NO: 63 and SEQ ID NO: 35) (other) heavy: EVQLVESGGGLVQPGGSLRLSCAASGYDFTHYGMNWVRQAPGKGLEWVGWINTYTGEPTYAADFKRRFTFSLDTSKSTAYLQMNSLRAEDTAVYYCAKYPYYYGTSHWYFDVWGQGTLVTVSSASTKGPSVFPLAPSSKSTSGGTAALGCLVKDYFPEPVTVSWNSGALTSGVHTFPAVLQSSGLYSLSSVVTVPSSSLGTQTYICNVNHKPSNTKVDKKVEPKSCDKTHLGSGGSGSAGSGSGGSVKVKFVFSGEEKEVETSKIKWVLRWGKAVGFKYDDQGKIGYGFVAEKDAPKELLDLLARAEREKGSGGSGSAGSGSGGSVKVKFDATGEEKEVETSKISAVYRTGKDVLFSYDDQGKIGWGYVSEKDAPKELLDLLARAERE light: not shown |  |  |  |  |  |  |  |  |  |  | 4.09 | 273 | 78 | 90.6 |  | 
Fab NF-H (Fab fusion protein comprising SEQ ID NO: 63 and SEQ ID NO: 62) (other) heavy: EVQLVESGGGLVQPGGSLRLSCAASGYDFTHYGMNWVRQAPGKGLEWVGWINTYTGEPTYAADFKRRFTFSLDTSKSTAYLQMNSLRAEDTAVYYCAKYPYYYGTSHWYFDVWGQGTLVTVSSASTKGPSVFPLAPSSKSTSGGTAALGCLVKDYFPEPVTVSWNSGALTSGVHTFPAVLQSSGLYSLSSVVTVPSSSLGTQTYICNVNHKPSNTKVDKKVEPKSCDKTHLGSGGSGSAGSGSGGSVKVKFVFSGEEKEVETSKIKWVLRWGKAVGFKYDDQGKIGYGFVAEKDAPKELLDLLARAEREKGSGGSGSAGSGSGGSVKVKFDATGEEKEVETSKISAVYRTGKDVLFSYDDQGKIGWGYVSEKDAPKELLDLLARAERE light: not shown |  |  |  |  |  |  |  |  |  |  | 0.13 | 123 | 47 | 0.1 |  | 
polypeptide comprising the amino acid sequence of SEQ ID NO: 33 (designed binder) MVKVKFAATGEEKEVETSKIANVYRVGKDVLFSYDDQGKIGWGYVSEKDAPKELLDLLARAEREK | 6.6 | 1.9 | 0.94 | -11.9 | -18.5 |  |  | 447 | 63 | 0.22 |  |  |  |  | 5.36e+08 | 1.9

More lines, now with the values ahead:

-TΔS [1] [kcal/mol] | Kd [1] [nM] | N [1] | ΔG [1] [kcal/mol] | ΔH [1] [kcal/mol] | Kd [2] [nM] | Ka [3] [M⁻¹] | IC50 (nM) Alternative (ELISA-based complement activation assay) [4] [nM] | IC50 (nM) Classical (ELISA-based complement activation assay) [4] [nM] | Kd [5] [nM] | Kd [6] [nM] | IC50 (nM) Alternative Pathway (Wieslab® assay) [7] [nM] | IC50 (nM) Classical Pathway (Wieslab® assay) [7] [nM] | Kd [8] [nM] | Ka [9] [M⁻¹] | Kd [10] [nM] | Binder
 |  |  |  |  |  |  |  |  |  | 1.42 | 170 | 63 | 8.9 |  |  | Fab NF-I (Fab fusion protein comprising SEQ ID NO: 36 and SEQ ID NO: 60) (other) heavy: EVQLVESGGGLVQPGGSLRLSCAASGYDFTHYGMNWVRQAPGKGLEWVGWINTYTGEPTYAADFKRRFTFSLDTSKSTAYLQMNSLRAEDTAVYYCAKYPYYYGTSHWYFDVWGQGTLVTVSSASTKGPSVFPLAPSSKSTSGGTAALGCLVKDYFPEPVTVSWNSGALTSGVHTFPAVLQSSGLYSLSSVVTVPSSSLGTQTYICNVNHKPSNTKVDKKVEPKSCDKTHL light: not shown
16.7 | 1.3 | 0.85 | -12.1 | -28.8 |  |  | 286 | 79 | 0.66 |  |  |  |  |  | 1.3 | polypeptide comprising the amino acid sequence of SEQ ID NO: 34 (designed binder) MVKVKFDATGEEKEVETSKISAVYRTGKDVLFSYDDQGKIGWGYVSEKDAPKELLDLLARAEREK
 |  |  |  |  |  |  |  |  |  | 0.21 |  |  | 16.9 |  |  | Fab NF-G (Fab fusion protein comprising SEQ ID NO: 61 and SEQ ID NO: 60) (other) heavy: EVQLVESGGGLVQPGGSLRLSCAASGYDFTHYGMNWVRQAPGKGLEWVGWINTYTGEPTYAADFKRRFTFSLDTSKSTAYLQMNSLRAEDTAVYYCAKYPYYYGTSHWYFDVWGQGTLVTVSSASTKGPSVFPLAPSSKSTSGGTAALGCLVKDYFPEPVTVSWNSGALTSGVHTFPAVLQSSGLYSLSSVVTVPSSSLGTQTYICNVNHKPSNTKVDKKVEPKSCDKTHLGSGGSGSAGSGSGGSVKVKFDATGEEKEVETSKISAVYRTGKDVLFSYDDQGKIGWGYVSEKDAPKELLDLLARAEREKGSGGSGSAGSGSGGSVKVKFVFSGEEKEVETSKIKWVLRWGKAVGFKYDDQGKIGYGFVAEKDAPKELLDLLARAERE light: not shown
